Measured values: paper PMC6418199 (Scientific Reports, 2019)

B1: 32D6 human monoclonal antibody (antibody, V domains shown)
VH: QVQLQESGPGLVKPSETLSLTCTVSGGSVNTGSYYWSWIRQPPGKGLEWIAYSSVSGTSNYNPSLKSRVTLTVDTSKNQFSLSVRSVTAADTAVYFCARLNYDILTGYYFFDFWGQGTLVIVSS
VL: QVELTQSPSASASLGTSVKLTCTLSSGHSTYAIAWHQQRPGKGPRYLMNLSSGGRHTRGDGIPDRFSGSSSGADRYLIISSLQSEDEADYYCQTWDAGMVFGGGTKLTVL
B2: 32D6-Fab (Fab, V domains shown)
VH: B1 VH
VL: B1 VL
notes: also called Fab of 32D6; His-tagged Fab of 32D6 (with the CH1 domain); source: Expi293F cells, purified (HisTrap excel column)

Tests used:
[1] = molecular target: hemagglutinin of H1N1 clinical isolate 2014-INF-36 (genotype A/California/07/2009) (Influenza A virus H1N1, clinical …, UniProt C3W5X2, strain); assay: cell-based or functional assay
[2] = molecular target: hemagglutinin of H1N1 clinical isolate 2013-INF-152 (genotype A/California/07/2009) (Influenza A virus H1N1, clinical …, UniProt C3W5X2, strain); assay: cell-based or functional assay
[3] = molecular target: hemagglutinin of H1N1 clinical isolate 2013-INF-153 (genotype A/California/07/2009) (Influenza A virus H1N1, clinical …, UniProt C3W5X2, strain); assay: cell-based or functional assay
[4] = molecular target: hemagglutinin of H1N1 clinical isolate 2014-INF-37 (genotype A/California/07/2009) (Influenza A virus H1N1, clinical …, UniProt C3W5X2, strain); assay: cell-based or functional assay
[5] = molecular target: hemagglutinin of H1N1 clinical isolate A/Taiwan/80813/2013 (genotype A/California/07/2009) (Influenza A virus A/Taiwan/80813/2013 …, UniProt C3W5X2, strain); assay: cell-based or functional assay
[6] = molecular target: HA1 domain (residues 63-290) of hemagglutinin from A/California/07/2009 (H1N1) (Influenza A virus …, UniProt C3W5X2); assay: SPR; […], single-cycle kinetics, 25 °C; […]; 10 mM HEPES pH 7.4, 150 mM NaCl; conditions: both partners purified

Binder	Neutralization EC50 (infection of MDCK cells, high-content image system) [1]	Neutralization EC50 (infection of MDCK cells, high-content image system) [2]	Neutralization EC50 (infection of MDCK cells, high-content image system) [3]	Neutralization EC50 (infection of MDCK cells, high-content image system) [4]	Neutralization EC50 (infection of MDCK cells, high-content image system) [5]	Kd [6]	koff [6]	kon [6]
B1	0.011 µg/mL	0.014 µg/mL	0.005 µg/mL	0.012 µg/mL	0.036 µg/mL	–	–	–
B2	–	–	–	–	–	0.353 nM	9.12e-05 s⁻¹	258000 M⁻¹ s⁻¹
